# According to US20120282177A1 (published 2012):
# Biological target: T1, Tyrosine-protein kinase transmembrane receptor ROR1 (Long Isoform), human, on the cell surface (human, UniProt Q01973 30-937)
# T1 construct: Endogenous ROR1 on the human cell lines A549, HT29, H69 and HEK293 and on CLL cells from a patient; also called cell-surface human ROR1; full-length ROR1
# Experiment: flow cytometry on A549 cells (FIG. 5a)
# Description: (§1) The specificity of antibodies against the ROR1 selected in Example 6 was tested by flow cytometry. To test the ability of the antibodies to bind to the cell surface ROR1 protein, the antibodies were incubated with the ROR1-expressing cells, A549, from human lung adenocarinoma. Cells were washed in FACS buffer (DPBS, 2% FBS), centrifuged and resuspended in 100 μl of the diluted primary ROR1 antibody (also diluted in FACS buffer). The antibody-A549 complex was incubated on ice for 60 min and then washed twice with FACS buffer as described above. The cell-antibody pellet was resuspended in 100 μl of the diluted secondary antibody (also diluted in FACS buffer) and incubated on ice for 60 min on ice. The pellet was washed as before and resuspended in 200 μl FACS buffer. The samples were loaded onto the BD FACScanto II flow sytometer and the data analyzed using the BD FACSdiva software. The binding of ROR1_A3, ROR1_A1, ROR1_A8 and ROR1_A14 to ROR1 expressed on A549, H69 (human small cell lung carcinoma) and HT29 (colon carcinoma) cells were also analysed using flow cytometry.
# T1 sequence (Q01973 30-937 limits assumed): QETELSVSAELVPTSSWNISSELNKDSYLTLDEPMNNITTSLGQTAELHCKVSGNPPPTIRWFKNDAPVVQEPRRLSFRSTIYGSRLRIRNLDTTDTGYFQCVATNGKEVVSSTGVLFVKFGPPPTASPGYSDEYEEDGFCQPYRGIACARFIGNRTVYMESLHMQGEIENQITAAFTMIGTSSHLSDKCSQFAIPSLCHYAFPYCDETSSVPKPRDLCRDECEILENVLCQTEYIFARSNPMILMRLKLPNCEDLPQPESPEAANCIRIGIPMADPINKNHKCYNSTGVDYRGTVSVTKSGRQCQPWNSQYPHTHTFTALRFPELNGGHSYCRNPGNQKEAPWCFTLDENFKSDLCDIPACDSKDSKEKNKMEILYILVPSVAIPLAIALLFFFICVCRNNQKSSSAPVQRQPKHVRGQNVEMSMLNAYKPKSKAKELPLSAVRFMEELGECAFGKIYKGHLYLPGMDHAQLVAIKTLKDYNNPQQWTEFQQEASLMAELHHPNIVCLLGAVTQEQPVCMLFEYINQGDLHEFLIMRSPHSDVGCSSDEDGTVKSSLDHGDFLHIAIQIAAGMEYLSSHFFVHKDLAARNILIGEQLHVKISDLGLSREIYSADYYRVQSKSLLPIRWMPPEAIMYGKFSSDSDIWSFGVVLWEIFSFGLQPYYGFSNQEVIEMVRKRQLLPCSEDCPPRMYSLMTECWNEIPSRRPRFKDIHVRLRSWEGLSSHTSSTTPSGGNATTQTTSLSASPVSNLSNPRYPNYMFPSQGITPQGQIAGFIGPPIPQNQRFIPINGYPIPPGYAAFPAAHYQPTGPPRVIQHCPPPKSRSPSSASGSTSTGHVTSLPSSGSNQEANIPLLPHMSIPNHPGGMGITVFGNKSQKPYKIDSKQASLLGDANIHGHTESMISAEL
row,binding result,Binder
1,binds,"ROR1_A4 (Fab, V domains shown, The entries are called 'variable region' but as printed hold leader, V domain, constant domain and tag) VH: EVKLVESGGGLVKPGGSLKLSCAASGFTFSNYGMSWVRQTPERRLEWVAAMNNNGASTYYPDTVKGRFTISRDNAKNTLYLQMSSLRSEDTALYFCVRHNNYVDYAMDYWGQGTSVTVSS VL: DILLTQSPSSMYTSLGERVTITCKASQDINSYLSWFQQKPGKSPKTLIYRANKLVDGVPSRFSGSGSGQDYSLTISSLESEDMGIYYCLQYDEFPYTFGGGTKLEIKR"
2,binds,"ROR1_A2 (Fab, V domains shown, The entries are called 'variable region' but as printed hold leader, V domain, constant domain and tag) VH: EVQLLETGGGLVKPGGSLKLSCAASGFTFSTYAMSWVRQTPEKRLEWVAGINSNRGTTYYPDTVKGRFTISRDNAKNTLSLQMTSLRSEDTALYYCVRHRYTNYDYAMDYWGQGTSVTVSS VL: DIKMTQSPSSMYASLGERVTITCKASQDINSYLSWFQQKPGKSPKTLIYRANRLVDGVPSRFSGSGSGQDYSLTISSLEYEDMGIYYCLQYDEFPYTFGGGTKLEIKR"
3,binds,"ROR1_A5 (Fab, V domains shown, The entries are called 'variable region' but as printed hold leader, V domain, constant domain and tag) VH: EVKLVESGGGLVKPGGSLKLSCAASGFTFSNYDMSWVRQSPEKRLEWVAAINRKGHSTYYPDTVQGRFTISRDNAKNTLYLQMSSLRSEDTALYYCVRLDDNYYFFDYWGQGTTLTVSS VL: DIKMTQSPSSMYASLGERVTITCKASQDINSYLSWFQQKPGKSPKTLIYRAKRLIDGVPSRFSGSGSGQDYSLTISSLEYEDMGIYYCLQYDEFPYTFGGGTKLEIKR"
4,binds,"ROR1_A9 (Fab, V domains shown, The entries are called 'variable region' but as printed hold leader, V domain, constant domain and tag) VH: EVQLVETGGDLVKPGGSLKLSCVASGFTFSSNAMSWVRQTPEKRLEWVAAINSKGGGTYYPDTVRGRFTISRDNAKNTLYLQVTSLRSEDTALYYCVSHGDNKYFYAMDYWGQGTSVTVSS VL: NIVMTQSPSSMYASLGERVTITCKASQDINSYLSWFQQKPGKSPKTLIYRANRLVDGVPSRFSGSGSGQDYSLTISSLEYEDMGIYYCLQYDEFPYTFGGGTKLEIKR"
5,binds,"ROR1_A6 (Fab, V domains shown, The entries are called 'variable region' but as printed hold leader, V domain, constant domain and tag) VH: EVMLVESGGGLVKPGGSLKLSCAASGFTFSPYAMSWVRQTPEKRLEWVAAINSNRGTTYYPDTVKGRFTISRDNAKNTLYLQMSSLRSEDTAFYYCVRHRYNNYDYAMDYWGQGTSVTVSS VL: DIVMSQSPSSMYASLGERVTITCKASQDINSYLSWFQQKPGKSPKTLTYRANRLVEGVPSRFSGSGSGQDYSLTISSLEYEDMGIYYCLQYDEFPYTFGGGTKLEIKR"
6,binds,"ROR1_A7 (Fab, V domains shown, The entries are called 'variable region' but as printed hold leader, V domain, constant domain and tag) VH: EVMLVESGGGLVKPGGSLKISCAASGFSFSSYAMSWVRQTPEKSLEWVAAININRGTPYYPDTVKGRFTISRDNAKNTLYLQMSSLRSEDTALYYCVRHRNSNNDYAMDYWGQGTSVTVSS VL: DIVMTQSPSSMYTSLGERVTITCKASQDINSYLSWFQQKPGKSPKTLIYRANRLIDGVPSRFSGSGSGQDYSLTISSLEYEDMGIYYCLQYDEFPFTFGSGTKLEIKR"
7,binds,"ROR1_A3 (Fab, V domains shown, The entries are called 'variable region' but as printed hold leader, V domain, constant domain and tag) VH: DVMLVESGGGLVKPGGSLKLSCAASGFTFSSYAMSWVRQTPEKRLEWVAAININRGTTYYSDTVKGRFTISRDNAKNTLYLQLSSLRSEDTALYYCSRHRYSDYDYAMDYWGQGTSVTVSS VL: DIQLTQSPSSMYASLGERVTIACKASQDINSYLSWFQQKPGKSPKTLIHRANRLVDGVPSRFSGSGSGQDYSLTISSLEYEDIGIYYCLQYDEFPYTFGGGTKLEIKR"

# Biological target: T1, Tyrosine-protein kinase transmembrane …
# Experiment: flow cytometry, legend of FIGS. 5a and 5b (members and cell lines per antibody named in paragraph 474)
# Description: as §1
row,binding result,Binder
1,binds,"ROR1_A14 (Fab, V domains shown, The entries are called 'variable region' but as printed hold leader, V domain, constant domain and tag) VH: QVQLKQSGAELVKPGASVKISCKATGYTFSSYWIEWVKERPGHGLEWIGEILPGIGNTNYNEKFKGKATFTADLSSKTAYMQLSSLTSEDSAVYYCASGGYSTVYWYFDVWGAGTTVTVSS VL: DVVMSQSPSSLAVSTGEKVTLSCKSSQSLLNSRTRKNYLAWYQQKPGQSPKLLIYWTSTRESGVPNRFTGSGSGTDFTLTISSVQAEDLAVYYCKQSYDLPWTFGGGTKLEIKR"
2,binds,"ROR1_A1 (Fab, V domains shown) VH: EVKLVESGGGLVRPGGSLKLSCAVSGFTFSSYAMSWVRQTPEKRLEWVAAINFNRGTTYYSDTVKGRFTISRDNAKNTLYLQLSSLRSEDTAFYYCSRHRYSDYDYAMDYWGQGTSVTVSS VL: DIVMSQSPSSMYASLGERVTITCKASQDINSYLNWFQQKPGKSPKTLIYRANRLVDGVPSRFSGSGSGHDYFLTIRSLEYEDMGIYYCLQYDEFPYTFGGGTKLEIKR"
3,binds,"ROR1_A13 (Fab, V domains shown, The entries are called 'variable region' but as printed hold leader, V domain, constant domain and tag) VH: EVQLVETGGGLVKPGGSLKLSCAASGFTFSSYAMSWIRQTPEKRLEWVAGINSNRGTTYYPDTVKGRFTISRDNAKNTLYLQMNSLRSEDSALYYCVRHRYIDYDYAMDYWGQGTSVTVSS VL: NIVMTQSPSSMYASLGERVTIICKSSQDINSYLSWFQQKPGKSPKTLIFRANRLVDGVPSRFSGSGSGQDYSLTISSLEYEDMGIYYCLQYDEFPYTFGGGTKLEVKR"
4,binds,"ROR1_A12 (Fab, V domains shown, The entries are called 'variable region' but as printed hold leader, V domain, constant domain and tag) VH: EVQLVESGGGLVKPGGSLKLSCAASGFTFSSYAMSWVRQTPEKRLEWVAAINSNRGTTYYSDTVKGRFTISRDNAKNTLYLQMSSLRSEDTAFYYCTRHRYSDYDYAMDYWGQGTSVTVSS VL: DIKMTQSPSSMYASLGERVTITCKASQDINSYLSWFQQKPGKSPMTLTHRANRLVDGVPSRFSGSGSGQDYSLTISSLENEDMGIYYCLQYDEFPYTFGGGTKLEIKR"
5,binds,"ROR1_A10 (Fab, V domains shown, The entries are called 'variable region' but as printed hold leader, V domain, constant domain and tag) VH: EVQLVETGGGLVKPGGSLKLSCAASGFAFSSYAMSWVRQTPEKRLEWVAAINNRGGGTYYPDTVRGRFTISRDNAKNTLYLQMSSLRSADTALYYCVRHDNLNYDYAMDSWGQGTSVTVSS VL: NIVMTQSPSSMYASLGERVTITCKASQDIYSYLSWFQQKPGKSPKTLIYRANRLVDGVPSRFSGSGSGQDYSLTISSLDYEDVGIYYCLQYDEFPYTFGSGTKLEIER"
